This assay concerns the target T1, human CCX CKR with N-terminal Flag epitope, stably expressed on HEK293 cells (human, UniProt Q9NPB9 1-350).
T1 construct: also called HEK293-CCX CKR cells
T1 sequence: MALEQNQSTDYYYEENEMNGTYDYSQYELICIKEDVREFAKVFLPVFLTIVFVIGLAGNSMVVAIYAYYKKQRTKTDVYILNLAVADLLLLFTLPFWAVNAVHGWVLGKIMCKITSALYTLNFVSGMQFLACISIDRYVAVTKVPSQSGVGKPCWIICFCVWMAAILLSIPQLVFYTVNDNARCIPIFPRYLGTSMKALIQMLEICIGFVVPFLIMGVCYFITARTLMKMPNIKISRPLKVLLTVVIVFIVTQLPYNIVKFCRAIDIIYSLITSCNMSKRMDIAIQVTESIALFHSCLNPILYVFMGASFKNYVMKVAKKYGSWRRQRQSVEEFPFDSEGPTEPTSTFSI
Kind of assay: radioligand binding competition on CCX CKR stable transfectants (similar experiments).

The term Kd denotes the concentration at which binding is half-saturated. The low end stands for higher affinity, the high end for lower affinity.

B1: murine CTACK (ligand, UniProt Q9Z1X0 26-120, looked up)
chain: LPLPSSTSCCTQLYRQPLPSRLLRRIVHMELQEADGDCHLQAVVLHLARRSVCVHPQNRSLARWLERQGKRLQGTVPSLNLVLQKKMYSHPQQQN
notes: also called mCTACK; CCL27
Molecule B1 had a Kd of roughly 9 nM.

(Values after patent EP1224222B1 (ChemoCentryx, Inc., dated 2010).)
